Experimental data reported in FireProtDB (doi:10.1021/bi00492a006).

B1: Ribonuclease, P00648 (parent)
chain: MMKMEGIALKKRLSWISVCLLVLVSAAGMLFSTAAKTETSSHKAHTEAQVINTFDGVADYLQTYHKLPDNYITKSEAQALGWVASKGNLADVAPGKSIGGDIFSNREGKLPGKSGRTWREADINYTSGFRNSDRILYSSDWLIYKTTDHYQTFTKIR

Variants of: B1
Conditions: Bacillus amyloliquefaciens; pH 6.3; 25 °C; Urea; Fluorescence; MES-NaOH 50 mM; reversible: yes; structure 1BNI; whole UniProt chain shown

Variant | ddG of mutation (higher = less stable) | denaturant m value | denaturant midpoint (higher = more stable) | unfolding free energy
T63R | 0.78 kcal/mol | 1.94 kcal/mol/M | 4.75 M | 9.23 kcal/mol
D59A T63R | 0.13 kcal/mol | 2.24 kcal/mol/M | 4.4 M | 9.88 kcal/mol
D59A | -0.11 kcal/mol | 2.33 kcal/mol/M | 4.33 M | 10.1 kcal/mol
